Assay results from the DeepSol protein solubility set.

Test: soluble on expression in E. coli; label from the status in PepcDB or PDB records

Soluble on expression in E. coli, not soluble:
MGSDKIHHHHHHMAERLGISIRSIYRDIDSLRAQGVRIDASAGLGFQLKEDILLPPVTFNENEAEALFLALEWLKDVPDQAMKSAAVSIYSKLYAVLPEHRKYLIDDMTLGVTHYWHPVDEALVEQVRLAIRKQVKIKVDYCDEHKRISQRSLWPFALGYLHDKVVLAAWCELRQAFRHFRIDRIHDLQMSEEIYPEFKKHLFQRWWKQEMQRTTDKN
MGSDKIHHHHHHMAETSIEWTDVTWNPVAGCTVLTAGCTNCYAMRMAARLEAMGVEKYAGLTRKSGGRAKWTGRIFLDRKALSIPASWSKPRRVFVNSMSDLFHSDVPTDFISDVWKVMAQTPRHTYQILTKRPDRMVEIVPGLAKLRNVWLGTSVEDARVIYRIDKLRQVPAAVRFVSFEPLIGSVSGAGLRNIHWAIVGGESGPKARSMDPAWVDEIESMCRDQGAAFFFKQWGGKNKKAAGRTLNGRLYDEMPAPSMP
MGSDKIHHHHHHMAGVILLLMGEGLACAHDTALLDKAGRLMASRDYAAAYALLEPVESEYSGDPAYDMLFGLAAIDSGHVTRGVFALERVLAVQPYNGNARAQIARAYFLLGEQEAARAEFRNVLNQQPPEEITQVINRYMSAIDKAQGLTTAFSAYLEGGVGHDSNVNSATAASSVTVAVPALGGLIVDIGLDRQARESSDNYTNLAGGISFRTPLARRFALFAGINASQRLNRHQDAFDLGMLDANVGLSYRQHRDTYTVAAQANSLSLDDQTYRRAYGINMQWQRDIDTKNQVNLFAQVSRLAYPDNRIRDADRYIVGGGWAHVFDGDLTPLLFVSGYGGKEQARNEYADFLSYRVHGVRSGGQLTLRPNLVAFTTLGYENRRHDEPETFPFLFATREDKQLDASVGLRYLPGYNWIIKPQFTFIRNDSTVELYSFDRYMVSVSVRREFNW
MGSDKIHHHHHHMAHVGLAMHFRRDPNDRRKELTVSRFIEVVHKNAVASRNTADAFIKEMLHYNIAEYVAGGDGRTHPLQPTAATIERFTGWVTAHLRTLDHIDGGDRLGRYLDRPDMLATLQPLIADGLLASKPVREPHQTFSLFIWLNNGGIVMDWLMSGIDPDHAGLERIPTSVVSIGDFAKWLKLSRTHLGRKLRTAEELGSIGWLGQRGHSVMWVSHGFYEEYMTVQAAKLAVVDNAFKACFPPSQGDD
MGSDKIHHHHHHMAIILGGMVPRPPWKYRLLAAIHAHRNAGDPGADPLVRRAVERLVAVTSRVVFGVEKPGWITSGASEGNLLALYTLREEGYRRVVAFDTSHYSIKKSALTLSMELDLLPTHGGRPRLDLLERRITPDSVVVATVGTTQEGLVDPVEEIAGVAESVGAAVHVDAAYGGYIARFLTGKARFRLEPPVMTVVVDAHKIPEAPPPAGVILASKQKLLDNLWFESPYIPTGRQFGILGTRPGGPIVAAWRRVEDLERNPGFPRLASILMRRLRKTLKALERLGYETPVTPDLPVACATHPRLGEVLERLKASGVRVYRCRSPKPCLHVTNYGRLCRARLGSSRSPRGCLRKPLGASLGNPGVTGLGL
MGSDKIHHHHHHMAILQLGMAFDADAFSASVIGIAADVGSHDSGVHRHGKGQLLYAPQGCITFAWEDAIGILPPTKAVWIPPHTPHRAVMTNVVAYRSLYFDCSRIVAPASVTMVDVNPLLKALIDKMAFWPWDTPEASMTHSCALFWEEFYAARCHSFRLTIPVDRRFHGFRQQLFRPEFLPPDIDSLAATIGASTKTVTRLFKRDTGMSYQEWRQQWRLLKAIELLSGALPVSEVGFRLGFSSDSAFIAFFRKQTGKTPRHFMQG
MGSDKIHHHHHHMAIVRTVLGDITPDQAGSTLTHEHIRYAYPGCELDHRCVWDFDFVAEDVGKQFEEMREGCGIKTVVELTPPEIGRHPELFAQIARRSGMNIVATTGFFPEANAMGIPFHWRRQRKEDVVNMLIRDLTEGMIYDGQKTPYRAGILKAATGSLTAKTRTPVNEKGRRIGNVETHVISAIAAAQREVGCAINTHTQPLDYAVCNPGIELLDELEEGGADPTKVIIGHAFVHPNIDQLKAICERGASVQVDHIGIPWQNDSRAQLDELIAVAMCQLADLGHLDKLVVSYDKFFSHARGPVTEEEPEQLNELVPNDYIMTEFAPRLERKGFGARELHQVMVENPKRLLAF
MGSDKIHHHHHHMAKFDIITIEDKIQQLLEDGFDQASFIYEFLSFYDISKTAITRIRKEQSGEIKNKLYYKTVPTDKSVVAGVAEIEEAIKDKKSQPRYIIVTNFVDFAAKDTKTFDTLQIPFKDLPTYADFFLAWNGVEKVDYAKENPADIKAAERFTRLYDELKKINHFDDRSQEEKEFNLFLIRLLFLLFAEDTEIMKKGIFTNAIKTRSREDGSDLNTLFNQIFASLDIANRLSQENWLQEFPYVNGKLFTDASTDLVFDKKTRKLILEAGELLNWNEINPDILGAMIQTVASSEHRSSSGMHYTSVENIMKVIKPLFLDELTANFQTIVDKINENEDKDITERTRRENRAAYEKELSTLHEHLSKIKFFDPACGSGNFLIITYKELRRLEIRLLKALRELRQDGKIDFFETSKISLNQFYGIELDDFAHEVARLSLWIAEYQMNLEALNEINLQSAFLPLRDAGNITQGNALRLDWDKVVPHTPTDEIYLIGNPPYIGAKIAK
MGSDKIHHHHHHMAKLETFYPIVATPKRAGYKEYLPSAVLTGYIRCFWEADDKNFPGNNLVVPDLCADIIFTIDSKTGLVTDAIFVGVSDAPFESDDESNTELFAVRFYAWSLFLFVEQDLTGSMNRVKEPEEMFAGFVSFFQERFAEMTTNMERIALLEEFLLRKLMMLGKQVHPDFLNGIDKLLQNPNQLALGAVSVRQLERLFQKHMGLAPKQTAKLIRFQKVLQALYENPSVPGAELAYLHGFTDQAHLIKQFKRYSNHTPEEMKQIFLQNVANIQ
MGSDKIHHHHHHMAKPKRRYVCQACGSVTHRWQGQCVDCSEWNTLAEEAPETIFSAKHDLSSGGRRVAFVSLDQPVALPQRRKTGIAEFDRALGGGLVPGCAILMGGDPGIGKSTLLLQASAKVALSGGSAVYISGEEASDQVRLRADRLGLGKAPILLAAATSVRDILTTLGNMEPPSLVVIDSIQTMHSDQIEGAPGTVSQVRGCAFELIRYAKENGVALVLVGHVTKDGSIAGPRVLEHMVDVVMSFEGERSHQYRILRALKNRFGAVDEIGVFAMAGQGLEEVGNPSMLFLSGREQEVPGSAVFPALEGTRPVLVEIQALTVRLASGATPRRAVVGWDSGRLAMLLAVLEARCGLNFSSAEVYLNVAGGYRLTDPAADLAVAAALVSALSDRPLPSGSIWFGEISLAGEVRPVAHTPVRLKEAAKLGFSRGCGPEAGAEKVDGLRYSPLRLLPNLIDRVMGGS
MGSDKIHHHHHHMALEDLVILLVEDDPVFRSIVAAFLTNRGATVIEADDGQQGLERFSQHDFDIVLADLSMPILGGLDMLKQMIKRKPDTLSIVISGNQVMADVVEALRVGASDYLVKPVNDLCLIENAIRQCVGGSSQQDVQLEDLDELSYQELEEHLNLLEQNAEAAKSVQQQLFPPSVIDYPKAKIDYSLFKHDEVSAYFIDSVNVGERYLIMYMAHFHPQDNRCAFASVLLKSFVNQKLKQFRNDNTETVIEPFNMLSYLNERMSKSGLDIYVDIVYAVVELTHYRASIAQAGKGLRCYIRNEEGLMPLAMPDALQLGILEWGQPSTQFRNLMPGESLCVASSNIEHRDMLLNDEFVGLSYSPEVAPGGYVQMSF
MGSDKIHHHHHHMANFKVGCGKAMIQFSASELPIREFKSKLDDLYCRVMLISGKNSWALISFDLTSLRAAAIKRYQELAARLLAIDSNQIWVTVTHTFAAPHLPSTTDSMARKSAYRLIDEKLKESLMLACRQAHEDLQAVQVGQVNINCPLNVNRNVLTKQGWWLGRNLEGYSNHQLRVLAFRKADKTTNLLVNYDIQQSVLDHVTDDHGEQMISSDLMGNGIKAYEGNDRVAIFIPGCAGDQRPLFTGKANQPFAVNKALLANQATIVTEKLEWAVQNVHDWQPLRQLRSSQLPVIVPTQVQQRSTFEIKPTKTYDFQSTKQTTTLHLWALRLNQYEIVGTEPELNSSFGDSCRQALAGNTNTMIATLVNGAAKYLPEQIDFERITYQSMNTQLGLTADQCMLEACVQLRQKISEEEY
MGSDKIHHHHHHMANKNLYGGNPERGWCMVLPGFFSEDIRVDNHAANGRSSKSFISEGRWAKVISQVKKGDYVFIQFGHNDEKADSARHTDPGTTFDDNLRRFVNETRVKGGIPVLFNSIVRRNFVQPEDASIATDARRAPGEQELPKEVNVLYDTHGAYLDSPRNVAKEMGVAFIDMNKITHDLVQGLGPAESKKLFMFVEPEKVPAFPKGREDNTHLNVYGARTIAGLTVDAIAKEIPELAKYVRHYDYVVAQDGTGDFFTVQEAINAVPDFRKNVRTTILVRKGTYKEKIIIPESKINISLIGEDGVVLTNDDFANKKNVFGENMGTSGSSSCYIYAPDFYAENITFENSAGPVGQAVACFVSADRAFFKNCRFLGYQDTLYTYGKHSRQYYEDCYIEGTVDFIFGWSVAVFNRCHIHSKRDGYVTAPSTDQGKKYGYVFYDCRLTADPDVAKVYLSRPWRPYAQAVFIRCELGKHILPEGWHNWGKKEAEKTVFYAEYDSHGEGANPKARAAFSRQLKNLKGYEMETVLAGEDGWNPLKNDSVK
MGSDKIHHHHHHMANVNKTPGKTRRAEVAGGGFAGLTAAIALKQNGWDVRLHEKSSELRAFGAGIYLWHNGLRVLEGLGALDDVLQGSHTPPTYETWMHNKSVSKETFNGLPWRIMTRSHLHDALVNRARALGVDISVNSEAVAADPVGRLTLQTGEVLEADLIVGADGVGSKVRDSIGFKQDRWVSKDGLIRLIVPRMKKELGHGEWDNTIDMWNFWPRVQRILYSPCNENELYLGLMAPAADPRGSSVPIDLEVWVEMFPFLEPCLIEAAKLKTARYDKYETTKLDSWTRGKVALVGDAAHAMCPALAQGAGCAMVNAFSLSQDLEEGSSVEDALVAWETRIRPITDRCQALSGDYAANRSLSKGNMFTPAALEAARYDPLRRVYSWPQ
MGSDKIHHHHHHMANVTPDLVKALFVGFGKNFKDGLAKAPSQYTEIATVVKSTTASNTYAWLGQMPGLTEWIGDRTLTAIQSHGYSIVNKKWANGVEIQRTDIEDDNVGVYSPLIEELGRAAGEKADELVFGALTAGFKTACYDGQYFFDTDHPVGANVDGTNQKSVSNITDDSTGVTEANAWYLLDCSRSLKPIIYQERKAPTPAQITDANDEKVFMKDVFTYGVDSRSNVGYGFWQMAHAVKGKLTAENLWKAIEAMRAVRGDGDKRLAIRPTHIVVPPSLAQAATKLLERELRAEDGVAVDNEFKRMNLKLIVGDYL
MGSDKIHHHHHHMANVVLFGLQDYAELAHYYLEHDSPHQVAAFCVDRQYIPDSGTFKNLPVVAFEDVAHTHPPGDFSFFAPMSPKHMNRDRERIFNAIKAHGYTLISYVSSRATKFDNEIGENCFILEDNTLQPFTRIGDNVVLWSGNHIGHHGRIGDHVTMTSHVVMSGHCDIGAYSFVGVNATLRDGVTIGEGTFVAMASAITKNTEPWSVYRGNPAVKLTMPSTEVKF
MGSDKIHHHHHHMAQQPLAYRMRPQRLEDIVGQQDLVAPGKIIARMVAAKLLSSMILYGPPGTGKTSIASAIAGSTQYAFRKLNAATDSKKDLQIVAEEAKMSGTVILLLDEIHRLDKTKQDFLLPHLESGRIVLIGATTENPYININPAIRSRTQIFEVHPLTPDDIKIALHRALTDTENGLGKLPIDLNTEALNFIAGATNGDLRSALNGLELAAQSTPAANDDRIHITLAVAEACFQRKALMGDKDGDAHYDVISAFQKSIRGSDTDAALHYLAQLVAAGDLPAICRRLMVIAYEDIGMANLPAAARTVQAVQAAQQLGLPEGRIPLADAVIELCLSPKSDSGISAIDAALADVLNGHNGAVPDHLKDAHYAGAKKLGHGTDYKYPHNFPNDWVKQQYLPDTLKNAEYYHPKTNGRFETQLAQQYRRLLTANRH
